Consider 8 substances from US20190314479A1.

The target in the first assay is HLA-A2 molecules. Nature of the assay: T2A2 peptide binding assay to HLA-A2.
In the case of “HPV-16 E6 agonist peptide E6-A1 (L19V) (peptide; other documents disagree on this pair)”, the T2A2 Binding turned out to be 1340.

In turn, “HPV-16 E6 agonist peptide E6-A2 (C80V) (peptide; other documents disagree on this pair)” yielded a T2A2 Binding of 877. Same read-out and setting: under “HPV-16 E6 agonist peptide E6-A3 (Q91L/L99V) (peptide; other documents disagree on this pair)” stands 1280; under “HPV-16 E6 native peptide E6-1 (E6 11-19)”, 853. The same measure, in the same setting: with “HPV-16 E7 agonist peptide E7-A1 (T19V) (peptide; other documents disagree on this pair)” the figure was 1170; with “HPV-16 E7 agonist peptide E7-A2 (L15V) (peptide; other documents disagree on this pair)”, 1530. In the case of “HPV-16 E7 agonist peptide E7-A3 (T86V) (peptide; other documents disagree on this pair)”, the T2A2 Binding came out at 1260.

The target in another assay is HLA-A2 molecules. Nature of the assay: T2A2 peptide binding assay to HLA-A2, negative control.
In turn, NEG (Negative control) (peptide) came in with a T2A2 Binding of 812.
